Laboratory results reported in publication PMC2275150.

Molecular target: T1, Cdc13-DBD (Saccharomyces cerevisiae, UniProt P32797 497-694)
T1 sequence: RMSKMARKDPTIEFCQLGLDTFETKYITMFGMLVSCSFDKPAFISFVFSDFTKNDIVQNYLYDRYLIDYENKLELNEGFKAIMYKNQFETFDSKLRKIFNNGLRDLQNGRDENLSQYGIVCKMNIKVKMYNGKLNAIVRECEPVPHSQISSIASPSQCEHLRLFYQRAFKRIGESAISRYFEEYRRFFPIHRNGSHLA
Assay: NMR

GTGTGGGTGTG (ssDNA) [Tel11]
binding result: binds
